Our source for the Kd, koff and kon values is patent publication CN112159477A (UNIV SHANGHAI MEDICAL & HEALTH SCIENCES, dated 2021).

Experiment [1] has as its target T1, rhMICA-His蛋白 (human, UniProt Q29983 24-308).
T1 construct: Control protein; also called MICA蛋白; not shown: His tag
T1 sequence (looked up): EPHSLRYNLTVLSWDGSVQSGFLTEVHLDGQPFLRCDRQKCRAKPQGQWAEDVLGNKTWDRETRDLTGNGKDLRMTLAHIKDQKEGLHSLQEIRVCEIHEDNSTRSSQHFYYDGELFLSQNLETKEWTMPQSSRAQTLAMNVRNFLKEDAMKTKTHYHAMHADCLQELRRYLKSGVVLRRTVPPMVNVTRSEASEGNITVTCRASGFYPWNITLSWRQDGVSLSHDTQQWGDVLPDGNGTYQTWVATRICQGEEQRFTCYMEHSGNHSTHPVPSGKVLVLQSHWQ
Briefly: BLI (Fortebio Octet Red96), rhNKG2D-Fc captured on AHC sensor, rhMICA-His 1.23-11.1 nM as analyte. (Biolayer interferometry detects binding as a change in optical thickness at a sensor tip.)

In experiment [2] the target is T1, rhMICA-His蛋白. Briefly: BLI (Fortebio Octet Red96), rhNKG2D-Fc captured on AHC sensor, rhMICA-His as analyte.

B1: rhNKG2D-Fc蛋白 (Fc fusion, human, UniProt P26718 78-216, looked up)
chain: FLNSLFNQEVQIPLTESYCGPCPKNWICYKNNCYQFFDESKNWYESQASCMSQNASLLKVYSKEDQDLLKLVKSYHWMGLVHIPTNGSWQWEDGSILSPNLLTIIEMQKGDCALYASSFKGYIENCSTPNTYICMQRTV
notes: the order of the parts follows the printed name only; not shown: Fc part (captured by an anti-human IgG Fc sensor)
A word on the Kd: it is the constant that tells how readily two partners part at equilibrium. Lower therefore signals a tighter complex. Broadly, the koff is a measure of how fast the partners let go of each other. A lower koff goes with slow dissociation. In general, kon refers to the rate constant with which the complex forms. Low readings indicate slower complex formation, high ones faster complex formation. On to B1, for which binding in the experiment with rhMICA-His蛋白 [1] was characterised by a dissociation constant (Kd) of 1.26 nM. Also, in the experiment with rhMICA-His蛋白 [2], the koff is 0.0015 s⁻¹ and the association rate constant (kon) was found to be 1.19e+06 M⁻¹ s⁻¹.
